# According to the nanobody polyreactivity screen of Harvey et al. (2022):
# Assay: yeast display, Sf9 membrane polyspecificity reagent, FACS + sequencing; frameworks hold sequencing errors
# Outline: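 Using colony PCR, genes from sorted yeast display clones were amplified, then sequenced on MiSeq at 2 × 250 and filtered by CDR length. The clones had been stained with 10% biotinylated, detergent-solubilized Sf9 membrane reagent for 1 hour at 4 °C and sorted by FACS into low and high (top ~1%) gates on anti-HA and streptavidin fluorescence. Polyreactivity labels come from the gate of origin.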
row,Sequence,polyreactivity (PSR sort gate)
1,QVQLVESGGGLVQAGGSLRLSCAASGSTFYSYTMGWYRQAPGKERELVAAISRSAGSTYYADSVKGRFTISRDHAKNTVYLQMNSLKPEVTAVYYCAATLGRTYYSRWYGMDYWGQGTQVTVSS,high polyreactivity
2,QLQLVESGGGLVQAGGSLRLSCAASGLTFVDYAMGWYRQAPGKERELVAAITSSGGSITYYADSVKGRFTISRDNAKNTVYLQLNSLKPEDTAVYYCNADYGIYTDSFRGPDYESWGQGTQVTVSS,low polyreactivity
3,QVQLVESGGGLVQAGGSLRLSCAASGFTFEKNAMGWYRQAPGKERELVAAITSGGSTYYADSVKGRFTISRDNAKNTVYLQMNSLKPEDTAVYYCNAYYTYRFNYWGQGTQVTVSS,high polyreactivity
4,QVQLVESGGGLVQAGGSLRLSCAASGRTFWYYAMGWYRHAPGKERELVAAITSGGSTNYADSVKGRFTISRDNAKNTVSLQMNSLKPEDTAVYYCAKLFRQRRYWDWYDYWGQGTQVTVSS,high polyreactivity
5,QVQLVESGGGLVQAGGSLRLSCAASGRIVRRYARGWYIQAPGKERELVAAITNNGGNTYYADSVKGRFTISRDNAKNTVYLQMNSLKPEDTAVYYCKAGYYWGQGTQVTVSS,high polyreactivity
6,QVKLVESGGGLVQAGGSLRLRCAASGSIFRFYVMGWYRQAPGKERELVAAISSGGSTDYADSVKGRFTISRDNAKNTVYLQMYSLKPEDTAVYYCGARVRTVRNTYYSWGQGTQVTVSS,high polyreactivity
7,QVQLVESGGGLVQAVGSLRLSCAASVFIFPYYDMGWYRQAPGKEREFVAAITKSGGRTYYADSVKGRFTISRDNAKNTVYLHMNSLKPEDTAVYYCNADDPDYLVSYRYDYWGLGTQVTVSS,low polyreactivity
8,QVHLVESGGGLVQAGGSLRLSCAASGRTIRLNVMGWYRQAPGKERELVAAITRSVGSTYYADSVKGRFTISRDYAKNTVYLQMNSLKPEDTAVYYCNAVRSRYYDDYDYWGQGTQVTVSS,high polyreactivity
9,QVQLVESGGGLVQAGGSLRLSCAASGLIFYYNAMGWYRQAPGKERELVAAISTGGSTNYADSVKGRFTISRDNAKNTVYLQMNSLKPEDTAVYYCAAGTRNPYGYKMYYWGQGTQVTVSS,high polyreactivity
10,QVQLEESGGGLVQAGGSLRLSCAASGSTFVPNDMGGYRQAPGKERELVAAITDSGGSTYYADSVKGRFTISRDNAKNTVYLQMNSLKPEDTAVYYCAAEKAEWYYHTVWHFARGEYWGQGTQVTVSS,low polyreactivity
11,QVQLVESGGGLVQAGGSLRLSCAASGFTSPTAMGWYRQAPGKVRELVADISVGDGSTYYADSVKGRFTISRDNAKNTVYLQMNSLKREDTAVYYCAAEYWLYWYQDGFGFDYWGQGTQVTVSS,high polyreactivity
12,QVQLVESGGGLVQAGGSLRLSCAASGSIFYTNAMGWYRQAPGKERELVAAIRWSGGRTYYADSVKGRFTISRDNAKNTVFLQMNSLKPEDTAVYYCNVVVRYQSAYDYWGQGTQVTVSS,high polyreactivity
13,QVQLVESGGGLVQAGGSLRLSCAASGFIFRKYAMGWYRQAPGKERELVAAITASGGSTYYGDSVKGRFTISRDNAKNTVYLQLNSLKPEDTAVYYCATDFHGAERWLKYVYWGQGTQVTVSS,high polyreactivity
14,QVQLVESGGGLVQAGGSLRLSCAASGSTIFSYAMGWYRQSPGKERELVAAITYRSSRTYYADSVKGRFTISRDNAKNTVYLQMNSLKPEDTAVYYCARGGTAYRYHMDYWGQGTQVTVSS,high polyreactivity
15,QDQLVESGGGLVQAGASLRLSCAASGFTFHNKFKGWYRQAPGKERELVATISKSGGSTYYADSVKGRFTISRDYAKNTVNLQMNSLKPEDTAVYYCARRYRDYGRYGYWGQGTQVTVSS,high polyreactivity
16,QVQLVESGGGLVQAGGSLRLTCAASGLISTPNALGWYRQAPGKEREFVASISSRGGSTYYADSVKGRFTISRDNAMNTVYLQMNSLKPEDTAVYYCAADAYREFYYEYYYWGQGTQVTVSS,low polyreactivity
17,QVQLVESGGGLVQAGGSLRLSCAASGRIFVSNAMGWYRQAPGKERELVAAISKSGGRTYYADSVKGRFTISRDNAKNTVYLQMNSLKPEDTAVYYCAARSRVSPRYDYWGQGTQVTVSS,high polyreactivity
18,QVQLVESGGGLVQAGGSLRLSCAASGSIFGRYAMGWYRQAPGKEREFVAAINRSTGSTYYADSVKGRFTISRDNAKNTVYLQMNSLKPEDTAVYYCAARSHSPGYNRRIRGYWGQGTQVTVSS,high polyreactivity
19,PVQLVESGGGLVQAGGSLRLSCAASGSIFCYYTMGWYRQAPGKERELVASIDYSGVSTYYADSVKGRFTISRDNAKNTVYLQMNSLKPEDTAVYDCNAVYYSWDGSTWEYGYWGQGTQVTVSS,low polyreactivity
20,QVQLVESGGGLVQAGGSLRLSCAASGIIFTLYAMGWYRQAPGKERELVATISTGGGTYYADSVKGRFTISRDNAKNTVYLQMNSLKPEDTAVYYCNAVKLLGTRGYGYWGQGTQVTVSS,high polyreactivity
21,QVQLVESGGGLVQAGGSLRLSCAASGFIFSTNAMGWYRQAPGKERELVAVINGGGSTYYADSVKGRFTISRDNAKNTVYLQLNSLKPEDTAVYNCARKSWPKEGRVDPGYDYWGQGTQVTVSS,low polyreactivity
22,QVQLVESGGGLVQPGGSLRLSCAASGATLRSNAMGWSRQAPGKERELVAGISSGGGTYYADSVKGRFTISRDNAKNTVYLQMNSLNTEDTAVYYCAKVVYFGWSVQYYYWGQGTQVNVSS,low polyreactivity

row,Sequence,polyreactivity (PSR sort gate)
1,QVQLVESGGGLVQAGGSLRLSCAASGFIFAYNAMGWYRQAPGKERELVAAISIDTSTYYADSVKGRFTISRDNAKNTVYLQMNSLKPEDTAVYYCAADHVPFRLTELYYWGQGTQVTVSS,low polyreactivity
2,QVQLVESGGRLFQAGGSLRLSCAASGRIFYHNALGWYRQAPGKERELVADNASGGSTYYADSVKARFTISRDNAKNTVYLQMNSLKPEDTAVYYCAAEDEDSIFPFPYGAGSLFDFWGQGTQVTVSS,low polyreactivity
3,QVQLVDSGGGLVQAGGSLRLSCAASGCTFGSYAMGWYRQAPGKERELVAGITGSGGRTYYADSVKGRFTISRDNAKNTVYLQMNSLKPEDTAVYYCATTGRRWYYPYHYWGQGTHVTVSS,high polyreactivity
4,QVQLVESGVGLVQAGGSLRLSCAASGSIFYVYAMGWYRQAPGKERELVAAITNYADSVKGRFTISRDNAKNTVYLQMNSLKPEDTAVYYCAADWWRVEMDYWGQGTQVTVSS,low polyreactivity
5,QVQLVESGGGLVQAGGSLRLSCAASGFIFFRNAMGWYRQAPGKERELVAAISGSGGSTYYADSVKGRFTISRDNAKNTVYLQLNSLKPEDTAVYYCAAAGPFNYDYWGQGTHVTVSS,high polyreactivity
6,QVQLVESGGGLVQAGGSLRLSCAASGFIVKYNAMAWYRQAPGKERELVAAISYRGTRTYYADSVKGRFTISRDNAKNTVYLQMNSLKPEDTAVYYCNAGLTYNHDPYDYWGQGTQVTVSS,high polyreactivity
7,QVQLVESGGGLVQAGGSLRLSCAASGSIFYDNGMGWYRQAPGKERELVAAISRGGTTNYADSVKGRFTISRDKAKNTVYLQMNSLKPEDTAVYYCNAETRFTYWGSWYDYWGQGTQVTVSS,low polyreactivity
8,QVQLVESGGGLVQAGGSLRLSCAASGRIFDRNAMGWYRQAPGKERELVAAITRSGGRPYYADSVKGRFTISRDNAKNTVYLQMNSLKPEDTAVYYCNRGYPRSVVHYNSWGQGTQVTVSS,high polyreactivity
9,QVQLVESGGGLVQAGGSLRLSCAASGLIFLYNPMGWYRQAPGKEREFVAAITSVDSTKYADSVKGRFTISRENAKNTVYLQLNSLKPEDTAVYYCAAVPRYQYGYWGQGTQVTVSS,low polyreactivity
10,QVQLVESGGGLVQAGGSLRLSCAASGFTFPSYAMGWYRQAPGKERELVAVISWGGTSTYYADSVKGRFTISRDNAKNTVYLQMNSLKPEDTAVYYCATTRRVPGEYWGQGTQVTVSS,high polyreactivity
11,QVQLVESGGGLVQAGGSLRLSCAASGTFAGNALGWYRQAPGKERELVASITTGVRTYYADSGKGRFTLSRDNAKNTVYLQMHCLKPEDTAVYYCAADRIRDLEFYYWGQGTQVTVSS,low polyreactivity
12,QGQLVESCGGLVQAGGSLRLSCAASGRTFYYYAMGWYRQAPRKERELVAAMTSGGRTNSADSVKGRFTSSRDKATNTDSLQMNSLKPEDTAVYYCAKPPYSQYEFDYWGQGTQVTVSS,high polyreactivity
13,QVQLVESGGVLVQAGGSLRLSCAASGFIFAKYAMGWYRQAPGKERELVAAINGRGTSTYYADSVKGRFTISRDNAKNTVYLQMNSLKPEDTAVYYCAARLRSGYHGQYDREDYWGQGTQVTVSS,high polyreactivity
14,PVQLVESGGGLVQAGGSLRLSCAASGSIFDLNAMGWYRQAPGKERELVAAISSGGGTYYADSVKGRFTISLDNAKNTVYLQMNSLKPEDTAVYSCNRVTRGSYNYWGQGTQVTVSS,high polyreactivity
15,QVQLVESGGGLVQAGGSLRLICAASGLIFKFYAMGWYRQAPGKERELVASIRGSGDNTYYADSVKGRFTISRDNAKNTVYLQMNSLKPEDTAVYYCAADWLYDYGEYYYWGQGTQVTVSS,high polyreactivity
16,QVQLVESGGGLVQAGGSLRLSCAASGSIFTYNAMGWYRPAPGKERELVAAINTSGSTNYADSVKGRFTISRDNAKNTVYLQMNSLKPEVTAVFYCAAGIVVTGYYYWGQGTQVTVSS,low polyreactivity
17,QVQLEESGGGLFQAGGSLRLSCAASGRTFPGNAMGWYRQAPGKERELVAAISYSGGRTYYADSVKGRFTISRDNAKNTVYLQMNSLKPEDTAVYYCNAWARLGRYEYWGQGTQVTVSS,high polyreactivity
18,QVQLVESGGGLVQAGGSLRISCAASGSIFVTNAMGWYRQAPGKERELVAAISSGGNTNYADSVKGLFTISRDNAKNTVYLQMNSLKPEDTAVYYCAKDPDKVDYVDMDYWGQGTQVTVSS,low polyreactivity
19,QEQLQESGGGLVQAGGSLRLSCAASGIIFDWFFMGWYRQAPGREREFVAAITYGATTNYADSVKGRFTISRDNGKNTVYLQMNSLKPEDTAVYYCAAVRGRGGTHAYWGQGTQVTVSG,low polyreactivity
20,QVQLVESGGGLVQAGGSLRLSCAASGSTFGENAMGWYRQAPGKERELVAGINSTGGSTYYADSVKGRFTISRDNAKNTVSLQMNSLKPEDTAVYYCAAGDWYSGNTSHFYYWGQGTQVTVSS,low polyreactivity
21,QVQLQESGGGLVQAGRSQRLSCAASGYIFYFQYMGWYRQAPGKEREFVAAISDGANTNYADSVKGRFTISRDNAKNSEYLQMNSLKPEDTAVYYCAVYADENYYYIYWGQGTQVTVSS,low polyreactivity
